In patent US20240011997A1 (NORDIC BIOSCIENCE A S, published 2024):
Ends that are not written are not given here.

What was measured:
[1] = biological target: T1, intact elastin (Sigma, E7152) (human, UniProt P15502 27-786, limits assumed); assay: ELP-3 competitive ELISA on in vitro cleavage samples
T1 construct: Uncleaved elastin control of the in vitro cleavage experiment
T1 sequence (looked up): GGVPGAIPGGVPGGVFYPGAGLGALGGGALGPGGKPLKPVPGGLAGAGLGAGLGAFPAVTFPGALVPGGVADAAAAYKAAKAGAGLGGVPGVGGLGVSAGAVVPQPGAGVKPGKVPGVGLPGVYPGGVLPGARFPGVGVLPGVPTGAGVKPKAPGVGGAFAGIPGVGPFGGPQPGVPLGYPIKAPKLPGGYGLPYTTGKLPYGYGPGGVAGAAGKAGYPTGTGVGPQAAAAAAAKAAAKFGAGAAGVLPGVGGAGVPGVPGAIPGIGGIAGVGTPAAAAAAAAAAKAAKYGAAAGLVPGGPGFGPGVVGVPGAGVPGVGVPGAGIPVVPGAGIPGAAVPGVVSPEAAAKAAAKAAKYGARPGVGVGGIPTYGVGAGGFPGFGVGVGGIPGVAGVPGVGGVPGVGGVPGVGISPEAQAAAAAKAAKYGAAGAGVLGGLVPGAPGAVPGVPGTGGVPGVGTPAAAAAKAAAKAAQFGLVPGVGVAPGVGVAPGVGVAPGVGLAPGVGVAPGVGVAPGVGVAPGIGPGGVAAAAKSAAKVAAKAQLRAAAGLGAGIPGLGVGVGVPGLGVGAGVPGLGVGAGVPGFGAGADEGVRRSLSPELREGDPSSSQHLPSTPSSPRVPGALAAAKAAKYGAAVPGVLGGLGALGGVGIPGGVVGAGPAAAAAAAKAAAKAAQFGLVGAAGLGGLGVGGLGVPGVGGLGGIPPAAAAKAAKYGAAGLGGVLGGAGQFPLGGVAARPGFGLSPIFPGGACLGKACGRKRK

[2] = biological target: T2, Proteinase 3 (PR3; EPC ML734) (UniProt P24158 28-248); assay: as above
T2 construct: also called protease control
T2 sequence (looked up): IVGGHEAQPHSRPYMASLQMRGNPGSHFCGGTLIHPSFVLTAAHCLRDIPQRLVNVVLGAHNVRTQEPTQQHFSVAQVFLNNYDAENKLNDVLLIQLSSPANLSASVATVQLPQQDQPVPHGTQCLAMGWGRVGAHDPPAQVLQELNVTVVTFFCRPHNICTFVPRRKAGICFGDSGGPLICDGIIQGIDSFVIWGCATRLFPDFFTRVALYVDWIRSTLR

[3] = biological target: T3, Human neutrophil elastase (HNE) protein (Abcam, ab91099) (human, UniProt P08246 30-247, limits assumed); assay: as above
T3 construct: also called protease control
T3 sequence (looked up): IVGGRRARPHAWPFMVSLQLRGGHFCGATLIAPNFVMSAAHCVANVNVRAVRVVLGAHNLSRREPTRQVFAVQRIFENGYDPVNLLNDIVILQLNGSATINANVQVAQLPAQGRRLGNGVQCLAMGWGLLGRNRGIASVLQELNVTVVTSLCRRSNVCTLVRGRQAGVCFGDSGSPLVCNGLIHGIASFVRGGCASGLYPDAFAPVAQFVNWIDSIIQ

[4] = biological target: T4, non-sense peptide PGGVPGGVFY; assay: Competitive ELISA on coated Biotin-…
T4 construct: Control peptide in the specificity test
T4 peptide: PGGVPGGVFY
Experimental: (§1) Based on the collected antibodies the ELP-3 assay was developed as competitive ELISA assay. A 96-well streptavidin-coated microtiter plate (Roche, Basel, Switzerland) was coated with 100 ul biotinylated screening peptide (Biotin-[…] (SEQ ID NO: 5)) dissolved in assay buffer for 30 min at 20° C. with shaking. Plates were washed five times in washing buffer (20 mM TRIS, 50 mM NaCl, pH 7). Sample/standard/control (20 ul) was added and followed by addition of (100 ul) monoclonal antibody and incubated for 3 h at 4° C. with shaking. After incubation, plates were washed five times in washing buffer. A volume of 100 ul of secondary HRP labeled goat anti-mouse antibody was added followed by 1 h incubation at 20° C. with shaking. Plates were then washed and TMB was added and the plate was analyzed by a SpectraMax M reader (Molecular Devices, Ca, USA) at 450 nm with 650 nm as the reference. A standard curve was plotted using a 4-parametric mathematical fit model. Each ELISA plate included kit controls to monitor inter-assay variation. All samples were measured within the range of the assay. All samples below the level of lower limit of quantification (LLOQ) were assigned the value of LLOQ.
(§2) Supernatants from antibody producing hybridomas were screened for reactivity against standard peptide, elongated peptide, and truncated peptide in an indirect ELISA. The peptide Biotin-[…] […]

[5] = biological target: T5, Elongated peptide LPGGYGLPYTT (human); assay: Competitive ELISA on coated Biotin-LPGGYGLPYT
T5 construct: Standard peptide extended by one threonine at the C-terminus; also called C-extended elongated version
T5 peptide: LPGGYGLPYTT
Experimental: as §1, §2

[6] = biological target: T6, Standard peptide LPGGYGLPYT (human); assay: Indirect or competitive ELISA with the standard peptide as calibrator
T6 construct: Synthetic decapeptide with a free C-terminus; also called calibrator peptide; selection peptide
T6 peptide: LPGGYGLPYT-OH

B1: monoclonal antibody clone NBH116/6A10-E7-D12 (antibody, mouse IgG1, kappa, V domains shown)
VH: EVKLVESGGGLVQPGDSLRLSCATSGFTFTDYYMSWVRQPPGKALEWLGFIRNKANGYTTEYSASVKGRFTISRDNSQSILYLQMNTLRAEDSATYYCARDIITTPSWFGYWGQGTLVTVSA
VL: DIQMNQSPSSLSASLGDTITITCHASQNINVWLSWYQQKPGNIPKLLIYKASNLHTGVPSRFSGSGSGTGFTLTISSLQPEDIATYYCQQGQSYPLTFGAGTKLELKR
notes: also called ELP-3 antibody; the selected antibody
binding result [1]: no binding
binding result [2]: no binding
binding result [3]: no binding
binding result [4]: no binding
binding result [5]: no binding
binding result [6]: binds
